The source of these data is IntAct's records for PubMed 20485264.

Experiment [1] concerns the target ipka_human PKIA (UniProt P61925).
The target is the same in experiment [2]. This is another data set of the same source.
The target is the same in experiment [3]. The source holds these as a separate data set.
Experiment [4] shares this target. The source holds these as a separate data set.
In a further experiment the target is xpo1_yeast CRM1 (UniProt P30822).

For “Exportin-1 (Saccharomyces cerevisiae) (from UniProt P30822) P754D”, in the experiment with ipka_human PKIA [1], the “effect of a mutation on the interaction” value is given as “increasing interaction”.

Consider “Exportin-1 (Saccharomyces cerevisiae) (from UniProt P30822) V441A;L442A”, for which the “effect of a mutation on the interaction” value with ipka_human PKIA [2] is “increasing interaction”. Turning to “Exportin-1 (Saccharomyces cerevisiae) (from UniProt P30822) V441D”, the “effect of a mutation on the interaction” value with ipka_human PKIA [3] is “increasing interaction”. Consider “Exportin-1 (Saccharomyces cerevisiae) (from UniProt P30822) V443D”, for which the “effect of a mutation on the interaction” value with ipka_human PKIA [4] was “increasing interaction”. On to “cAMP-dependent protein kinase inhibitor alpha (Homo sapiens) (from UniProt P61925) I47A”, for which, in the experiment with xpo1_yeast CRM1, the “effect of a mutation on the interaction” value is “disrupting interaction”.
